Assay results published in patent US20030017170A1 (BURNHAM INSTITUTE, published 2003).
Positions of bridges follow the written chain, without caps; N, C: chain ends. No end group written: not given here.

B1: synthetic cyclic CIELLQARC (SEQ ID NO:13) peptide (peptide)
peptide: CIELLQARC
modifications: disulfide 1-9 (inferred)
notes: Synthetic peptide cyclised by a disulfide bond; also called cyclic heptapeptide

What was measured:
[1] = target: E-selectin:IgG chimera (UniProt P16581); test: competition ELISA: inhibition of sLe^x-PAA-biotin binding to coated E-selectin:IgG
Chain of E-selectin:IgG chimera (UniProt P16581) (P16581 22-301, change not shown): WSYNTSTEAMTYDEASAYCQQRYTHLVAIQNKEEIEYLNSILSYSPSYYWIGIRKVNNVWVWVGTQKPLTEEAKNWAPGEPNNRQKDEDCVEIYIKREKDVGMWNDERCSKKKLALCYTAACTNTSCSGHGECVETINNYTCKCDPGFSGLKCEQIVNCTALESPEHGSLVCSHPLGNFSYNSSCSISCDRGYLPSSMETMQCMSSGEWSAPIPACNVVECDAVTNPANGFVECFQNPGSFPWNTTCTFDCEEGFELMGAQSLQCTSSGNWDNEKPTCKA

[2] = target: E-selectin:IgG chimera (UniProt P16581 22-301); test: as above
Chain of E-selectin:IgG chimera (UniProt P16581 22-301) (P16581 22-301, change not shown): as above

Binder	IC50 [1] [µM]	IC50 [2] [µM]
IELLQAR [synthetic linear IELLQAR (SEQ ID NO:7) peptide]	200	–
B1	–	100
IELLQAR (also: eight copies on branched MAPS core) [IELLQAR (SEQ ID NO:7) multivalent (Fmoc eight branch) peptide]	10	–
